Columns and labels:
human CD34+ cells [1] = experiment: CFU-C / colony forming cell assay of edited CD34+ cells; format: cell-based; conditions: for erythroid and myeloid clonogenic output compared to standard protocol: FIG. 14G
human CD34+ cells [2] = experiment: Cell cycle analysis by Hoechst 33342 staining; format: cell-based; conditions: for cell cycle states (G1 to S/G2/M): bulk treated cells, 12-24 hours, FIG. 14H
Description: Cell cycle was analysed by flow cytometry (CytoFLEX LX; Beckman Coulter) at 12-24 hours post-editing by collecting 0.5-1×10^5 total HSPCs in culture. Cells were washed with PBS+2% FBS and stained by using 10 μg/ml Hoechst 33342 (Sigma-Aldrich) in PBS+2% FBS for 0.5-1 hour in final volume equal to 200 μl.

human CD34+ cells [3] = format: cell-based
Description: CD34+ cells were either freshly purified from human CB after obtaining informed consent and upon approval by the Ospedale San Raffaele Bioethical Committee, or purchased frozen from Lonza. CD34+ cells were edited according to a previously optimized protocol (Schiroli et al. 2017 supra).
Briefly, 5×10^5 CD34+ cells/ml were stimulated in serum-free StemSpan medium (StemCell Technologies) supplemented with penicillin, streptomycin, glutamine, 1 μM SR-1 (Biovision), […] (STEMCell Technologies), 10 μM PGE2 added only at the beginning of the culture (Cayman), and human early-acting cytokines (SCF 100 ng/ml, Flt3-L 100 ng/ml, TPO 20 ng/ml, and IL-6 20 ng/ml; all purchased from Peprotech). After 3 days of prestimulation, cells were washed with PBS and electroporated using P3 Primary Cell 4D-Nucleofector X Kit and program EO-100 (Lonza). Cells were electroporated with 2.5-1.25 μM of RNPs.
Transduction with AAV6 was performed at a dose of 1-2×10^4 vg/cell 15′ after electroporation. GSE56 mRNA was utilized were indicated at a dose of 150 μg/ml. Gene editing efficiency was measured from cultured cells in vitro 3 days after electroporation by flow cytometry measuring the percentage of cells expressing the GFP marker or by digital droplet PCR analysis designing primers and probe on the junction between the vector sequence and the targeted locus and on control sequences utilized as normalizer as previously described (Schiroli et al. 2017 supra).
For HDR ddPCR, primers and probes were designed on the junction between the vector sequence and the targeted locus and on control sequences used for normalization (human TTC5 genes). Thermal conditions for annealing and extension were adjusted for each specific application as follows: AAVS1/Intron 1 IL2RG HDR 3′ integration junction ddPCR: 55° C. for 30 sec, 72° C. for 2 min. Primers and probes for PCR and ddPCR amplifications are shown below.
CD34^+ cells were purchased frozen from Lonza. CD34^+ cells were edited according to a previously optimised protocol (Schiroli, G. et al (2017) Sci Transl Med 9). Briefly, 1-5×10^5 CD34^+ cells/ml were stimulated in serum-free StemSpan medium (StemCell Technologies) supplemented with penicillin, streptomycin, glutamine, 1 μM of the arylhydrocarbon receptor antagonist SR-1 (Biovision), […] of the pyrimidoindole-derivative UM171 (STEMCell Technologies), 10 μM of the 15-hydroxy PGDH competitive inhibitor dmPGE-2 added only at the beginning of the culture (Cayman), and human early-acting cytokines (SCF 100 ng/ml, Flt3-L 100 ng/ml, TPO 20 ng/ml, and IL-6 20 ng/ml; all purchased from Peprotech). After 3 days of pre-stimulation, cells were washed with PBS and electroporated using P3 Primary Cell 4D-Nucleofector X Kit and program EO-100 (Lonza). Cells were electroporated with 1-1.2 μM of RNPs. Where specified, electroporation mixture was supplemented with Ad5-E4orf1, Ad5-E4orf6/7 and GSE56/Ad5-E4orf6/7 mRNAs, which were respectively utilized at doses of 120, 80 and 200 μg/ml, or Ad5-E1B55K and Ad5-E4orf6 mRNAs were used at 120 and 80 μg/ml. All other adenoviral protein variants were used at standard dose 120 μg/ml. Transduction with AAV-6 was performed 15 min post-electroporation at dose of 1-5×10^4 vg/cell. Where specified, CD34+ cells were stimulated for shorter time in culture (0, 24 or 48 hours) and edited as described above. Gene editing efficiency was measured from cultured cells in vitro at 4 days post-editing by flow cytometry measuring the percentage of cells expressing the GFP reporter gene or by digital droplet PCR analysis designing primers and probe on the junction between the vector sequence and the targeted locus and on control sequence utilised as normaliser as previously described (Schiroli, G. et al (2017) Sci Transl Med 9) and Schiroli et al., Cell Stem Cell 2019. […]

[4] = system: human CD34+ cells transplanted into NSG mice; experiment: Xenotransplantation of edited human CD34+ cells in NSG mice; format: in vivo
Description: For transplantation, 3×10^5 CD34+ cells treated for editing at day 5 of culture were injected intravenously into NSG mice after sub-lethal irradiation (150-180 cGy). Sample size was determined by the total number of available treated cells. Mice were attributed to each experimental group randomly. Human CD45+ cell engraftment and the presence of gene-edited cells were monitored by serial collection of blood from the mouse tail and, at the end of the experiment (>20 weeks after transplantation), BM and spleen were harvested and analyzed.
NOD-SCID-IL2Rg^−/− (NSG) mice were purchased from The Jackson Laboratory and were maintained in specific-pathogen-free (SPF) conditions. The procedures involving animals were designed and performed with the approval of the Animal Care and Use Committee of the San Raffaele Hospital (IACUC #749) and communicated to the Ministry of Health and local authorities according to Italian law. For transplantation, 1.5-3×10^5 (for primary) or 2×10^6 (for secondary) CD34^+ treated cells at 24 hours post-editing protocol were injected intravenously into NSG mice after sub-lethal irradiation (180 cGy). Sample size was determined by the total number of available treated cells. Mice were attributed to each experimental group randomly. Human CD45^+ cell engraftment and the percentage of edited GFP^+ cells were monitored by serial collection of blood from the mouse tail over the weeks post-transplantation and at the end of the experiment (18-20 weeks post-transplantation) both spleen and bone-marrow were harvested and analysed.

B1: E4orf6/7: adenoviral protein from adenovirus serotype 5 E4 gene (SEQ ID No. 2), delivered as mRNA (protein)
chain: MTTSGVPFGMTLRPTRSRLSRRTPYSRDRLPPFETETRATILEDHPLLPECNTLTMHNAWTSPSPPVKQPQVGQQPVAQQLDSDMNLSELPGEFINITDERLARQETVWNITPKNMSVTHDMMLFKASRGERTVYSVCWEGGGRLNTRVL
modifications: delivered as mRNA; example amino acid sequence of Ad5-E4orf6/7
- increase in number of myeloid and erythroid colony forming units (CFU) compared to standard (human CD34+ cells [1]; FIG. 7C): 2 fold
- erythroid and myeloid clonogenic output compared to standard protocol (human CD34+ cells [1]): not affected
- cell cycle states (G1 to S/G2/M) (human CD34+ cells [2]): significant transition from G1 phase to S/G2/M phases
- mean increase in the percentage of primitive HSPC expressing GFP (CD34+CD133+CD90+GFP+) (human CD34+ cells [3]; AAVS1, CB CD34+, vs standard, all AAV6 doses, FIG. 6B): 1.5 fold
- increase in the percentage of targeted CD90+ cells (human CD34+ cells [3]; AAVS1, cells for NSG transplantation, FIG. 10B): 1.4 fold
- editing efficiency (GFP expression) at IL2RG locus (human CD34+ cells [3]; IL2RG, FIG. 14I): significant editing efficiency increase
- HDR edited alleles at AAVS1 locus (human CD34+ cells [3]; digital PCR in bulk culture, FIG. 14D): significantly increased
- HDR-events integrations increase in AAVS1 locus of HSPCs (human CD34+ cells [3]; discussion): 1.5 fold
- editing efficiency by molecular analyses on genomic DNA (human CD34+ cells [3]; human HSPC, FIG. 8B): reproducibly able to boost editing
- mean increase in the fraction of GFP+ cells compared to the standard (human CD34+ cells [3]; side-by-side, AAVS1, 4 days, FIG. 7A): 1.45 fold
- editing efficiency with editing at day 0 to day 2 post-thawing (human CD34+ cells [3]; total bulk and CD90+ fraction, AAVS1, FIG. 14K): editing efficiency was increased
- HDR-mediated integration (genomic DNA) (human CD34+ cells [3]; vs standard, FIG. 10D): increase levels of HDR-mediated integration
- human CD45+ cell engraftment in bloodstream, between groups ([4]; AAVS1, T0eq=3×10^5/mouse, FIG. 17B): did not show any statistical significance
- increase of the fraction of circulating edited cells ([4]; AAVS1, T0eq=3×10^5/mouse, primary transplant, FIG. 17C): 1.5 fold
- fraction of edited cells (GFP+ or HDR+) in blood, hematopoietic organs and blood lineages ([4]; AAVS1 edited CB CD34+, FIG. 11): significant higher fraction of edited cells
- overall level of engraftment of the human cells ([4]; AAVS1 edited CB CD34+, FIG. 11): does not affect the overall level of engraftment

B2: GSE56: p53 dominant negative peptide (SEQ ID No. 9), transiently overexpressed from electroporated mRNA (protein)
chain: MDGWCPGRDRRTEEENFRKKEEHCPELPPGSAKRALPTSTSSSPQQKKKPLDGEYFTLKIRGRERFEMFRELNEALELKDARAAEESGDSRAHSSYPKIVS
modifications: amino acid sequence of GSE56
- erythroid and myeloid clonogenic output compared to standard protocol (human CD34+ cells [1]): improved
- erythroid and myeloid clonogenic output (human CD34+ cells [1]; sorted populations, FIG. 3F): increased particularly in CD90+ fraction
- percentage of cells in S/G2/M phases (human CD34+ cells [2]; 24 hours after gene editing, FIG. 12A): partially rescued
- cell cycle states (G1 to S/G2/M) (human CD34+ cells [2]): lower and not significant
- increase of GFP expression compared to standard RNP+AAV6 (human CD34+ cells [3]; AAVS1, most primitive compartment (CD34+133+90+ / CD90+), 96 hours, FIG. 14C): 1.1 fold
- HDR-mediated integration (GFP+ cells) in the CD34+ 133+ 90+ fraction, mean (human CD34+ cells [3]; AAVS1 or IL2RG editing, 3 days): 42%
- overall efficiency of DNA repair (human CD34+ cells [3]; AAVS1 or IL2RG editing, 3 days, FIG. 3C): did not negatively impact overall efficiency of DNA repair
- HDR-mediated integration at the targeted locus (human CD34+ cells [3]; AAVS1 or IL2RG editing, ddPCR, 3 days, FIG. 3C left): promoted HDR-mediated integration at the targeted locus
- fraction of HDR-edited cells in the PB, average ([4]; 22 weeks post transplantation, IL2RG edited cells, FIG. 4D): 32%
- engraftment in the haematopoietic organs ([4]; AAVS1, limited dose T0eq=1.5×10^5/mouse, FIG. 12C): significantly higher engraftment
- percentage of human cells in the peripheral blood ([4]; CD40LG-edited cells, FIG. 13B): higher percentage of human cells
- percentage of gene correction over time ([4]; CD40LG-edited cells, FIG. 13C): more stable percentage of gene correction over time
- percentage of corrected cells in sorted cell types, vs standard ([4]; CD40LG-edited cells, endpoint, included CD34+ cells, FIG. 13E): 3- to 6 fold
- differentiation output ([4]; IL2RG edited cells, PB lineages, FIG. 4C): without any skewing in the differentiation output
- human CD45+ engraftment ([4]; IL2RG edited cells, PB of NSG mice, FIG. 4B): increased engraftment
- engraftment of treated cells ([4]; discussion summary): higher engraftment of treated cells
